The results in this text go back to PMC2660430, “Identification of Proteins Targeted by the Thioredoxin Superfamily in Plasmodium falciparum” (PLoS Pathogens, 2009).

Assay [1] addresses T1, PfOAT (recombinant ornithine aminotransferase) (P. falciparum strain 3D7, UniProt Q6LFH8 1-414).
T1 construct: Ornithine aminotransferase, P. falciparum strain 3D7, Swiss-Prot Q6LFH8, PlasmoDB PFF0435w; gene amplified from a gametocyte cDNA library with primers from the start codon (NcoI) to the last codon (XhoI); Amine-coupled to a CM5 chip and oxidized on the chip with 0.5 mM DTNB before each analyte; source: E. coli BL 21 (pET28a), purified (Ni-NTA)
T1 sequence (looked up): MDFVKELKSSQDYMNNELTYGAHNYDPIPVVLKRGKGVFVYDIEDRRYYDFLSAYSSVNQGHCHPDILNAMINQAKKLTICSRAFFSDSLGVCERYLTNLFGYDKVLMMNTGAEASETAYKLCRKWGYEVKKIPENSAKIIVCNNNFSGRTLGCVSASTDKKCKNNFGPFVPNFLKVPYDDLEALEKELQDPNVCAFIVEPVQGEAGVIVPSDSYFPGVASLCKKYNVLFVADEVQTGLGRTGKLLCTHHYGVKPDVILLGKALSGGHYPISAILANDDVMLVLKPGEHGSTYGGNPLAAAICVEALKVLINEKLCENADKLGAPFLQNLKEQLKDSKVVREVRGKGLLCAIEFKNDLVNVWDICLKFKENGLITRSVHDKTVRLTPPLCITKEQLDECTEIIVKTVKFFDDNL
Kind of assay: SPR; BIAcore X; OAT amine-coupled to CM5 chip, oxidized with 0.5 mM DTNB; analyte 10 µM in HBS buffer (10 mM HEPES, 150 mM NaCl, 3.4 mM EDTA, 0.005% Nonidet P-40, pH 7.4), 25°C, 10 µl/min; elution with 2 mM DTT; FC2-FC1. Conditions: both partners purified. In general terms: SPR reads the build-up and loss of mass on a sensor chip optically.

The assay “PfSAHH (recombinant …)” addresses T2, PfSAHH (recombinant S-adenosyl-L-homocysteine hydrolase) (P. falciparum strain 3D7, UniProt P50250 1-479).
T2 construct: S-adenosyl-L-homocysteine hydrolase, P. falciparum strain 3D7, Swiss-Prot Q7K6A6, PlasmoDB PFE1050w; gene amplified from a gametocyte cDNA library with primers from the start codon (NcoI) to the last codon (XhoI); Amine-coupled to a CM5 chip and oxidized on the chip with 0.5 mM DTNB before each analyte; also called oxidized SAHH; source: E. coli BL 21 (pET28a), purified (Ni-NTA)
In words: SPR; BIAcore X; SAHH amine-coupled to CM5 chip, oxidized with 0.5 mM DTNB; analyte 10 µM in HBS buffer (10 mM HEPES, 150 mM NaCl, 3.4 mM EDTA, 0.005% Nonidet P-40, pH 7.4), 25°C, 10 µl/min; elution with 2 mM DTT; FC2-FC1. The settings on record: both partners purified.

T2 sequence (P50250 whole entry): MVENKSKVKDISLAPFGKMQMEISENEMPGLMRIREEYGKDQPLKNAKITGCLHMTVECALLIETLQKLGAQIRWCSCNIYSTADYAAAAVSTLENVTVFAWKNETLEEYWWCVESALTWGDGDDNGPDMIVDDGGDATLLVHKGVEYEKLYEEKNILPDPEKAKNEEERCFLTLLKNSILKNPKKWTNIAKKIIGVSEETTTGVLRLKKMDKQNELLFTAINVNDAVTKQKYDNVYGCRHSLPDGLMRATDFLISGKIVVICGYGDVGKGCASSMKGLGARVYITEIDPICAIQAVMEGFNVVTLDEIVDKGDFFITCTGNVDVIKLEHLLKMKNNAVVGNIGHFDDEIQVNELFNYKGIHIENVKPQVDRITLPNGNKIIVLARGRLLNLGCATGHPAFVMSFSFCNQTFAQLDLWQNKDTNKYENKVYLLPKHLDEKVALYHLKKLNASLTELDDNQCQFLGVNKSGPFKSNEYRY

B1: PfTrx1^C33S (natural protein)
chain: MVKIVTSQAEFDSIISQNELVIVDFFAEWCGPSKRIAPFYEECSKTYTKMVFIKVDVDEVSEVTEKENITSMPTFKVYKNGSSVDTLLGANDSALKQLIEKYAA
notes: Thioredoxin 1 (PfTrx1), P. falciparum, PlasmoDB PF14_0545; Lacks the resolving cysteine; traps targets as a mixed disulfide through Cys 30; also called Trx^C33S; TrxC33S; source: E. coli M15 (pQE30), purified (Ni-NTA)
With B1, the binding result (in assay [1]; with PfSAHH (recombinant …)) was “binds” in each case.

B2: Plrx (wild type plasmoredoxin, recombinant) (natural protein, P. falciparum, UniProt Q8I224 1-179, looked up)
chain: MACQVDNPPKTYPNDKTAEYEKYANYMNYLYYYQNNELKKIDSSYFKDKYLGLFFGASWCKYCVTFIDSLNIFKKNFPNVEIIYIPFDRTYQEYQSFLKNTNFYALPFDNYLYICKKYQIKNLPSFMLITPNNNILVKDAAQLIKTDEYINNLKSLIKNYIIHPKTFQFNNRFFDLFRN
notes: Plasmoredoxin (Plrx), P. falciparum, Swiss-Prot Q8I224, PlasmoDB PFC0166w; also called wild type Plrx; PfPlrx; source: E. coli M15 (pQE30), purified (Ni-NTA)
B2: the binding result with PfSAHH (recombinant …) is reported as “binds”.
